# Test results reported in paper PMC4195903.
# Values joined by “and” are separate entries in the source; they are usually repeats but may differ in a detail not shown here. Equal entries are not always repeated.
# Legend:
# [1] = target: cellular thymidine kinase 1 (TK1), dog (dog (endogenous in ALL cells and mammary tumor tissue)); experiment: SEC; CMT tissue extract (dog No. 23) on Superose 12 (FPLC), 0.01 M HEPES pH 7.6, 0.15 M NH4Cl, 0.02% NaN3; fractions tested for TK1 activity and by immunoaffinity/Western blot
# [2] = target: cellular thymidine kinase 1 (TK1), dog (dog (endogenous in ALL cells and mammary tumor tissue)); experiment: SEC; ALL cell extract on Superose 12 (FPLC), 0.01 M HEPES pH 7.6, 0.15 M NH4Cl, 0.02% NaN3; fractions tested for TK1 activity and by immunoaffinity/Western blot
# [3] = target: serum thymidine kinase 1 (sTK1), dog (dog (endogenous in serum)); experiment: SEC; CMT serum (dog No. 23) on Superose 12 (FPLC), 0.01 M HEPES pH 7.6, 0.15 M NH4Cl, 0.02% NaN3; fractions tested for TK1 activity and by immunoaffinity/Western blot
Substance,stoichiometry N [1],stoichiometry N [2],stoichiometry N [3]
"cellular thymidine kinase 1 (TK1), dog (enzyme)",4,2,
"serum thymidine kinase 1 (sTK1), dog (enzyme)",,,2 and 4
